In article PMC9288159, “Identification of a guanine-specific pocket in the protein N of SARS-CoV-2”:

Molecular target: SARS-CoV-2 N protein C-terminal domain (NCTD) (SARS-CoV-2, UniProt P0DTC9 256-364)
Assay: EMSA; […]; binding buffer not stated ([…]
Conditions: protein: recombinant; tags: N-terminal His6-TEV site (pET28a); chain copies: 2; label: 5' IRDye-800CW

## CGGUUUCGCCG (ssRNA) [Oligo-G (SL5a apical region)]
  Kd: 32 ± 5 nM
